B1: yeast-displayed wild-type sBCMA (human BCMA extracellular domain, Met1-Ala54) [human] / human APRIL (a proliferation-inducing ligand) [human] (parent)
chain 1: MLQMAGQCSQNEYFDSLLHACIPCQLRCSSNTPPLTCQRYCNASVTNSVKGTNA
chain 2: AVLTQKQKKQHSVLHLVPINATSKDDSDVTEVMWQPALRRGRGLQAQGYGVRIQDAGVYLLYSQVLFQDVTFTMGQVVSREGQGRQETLFRCIRSMPSHPDRAYNSCYSAGVFHLHQGDILSVIIPRARAKLNLSPHGTFLGFVKL

Variants of: B1
Assay: flow cytometry binding of yeast-displayed sBCMA
Conditions: with human APRIL (a proliferation-inducing ligand) [human]; parent: 262

Variant	screen value
chain 1 MLQMAGQCPQDEYFDGLLYACIPCQLRCSSNTPPLACQRYCNASVTSSVKGTDA [chain 1 S9P N11D S16G H19Y T36A N47S N53D]	1310
chain 1 MLQMAGQCSQNEYFDGLLHACIPCQLRCSSNTPPLACQRYCNASVTNSVKGTNA [chain 1 S16G T36A]	102
chain 1 MLQMAGQCSQNEYFDGLLYACIPCQLRCSSNTPPLACQRYCNASVTNSVKGTNA [chain 1 S16G H19Y T36A]	325

Variants of: B1
Assay: flow cytometry binding curve of yeast-displayed sBCMA
Conditions: with human APRIL (a proliferation-inducing ligand) [human]

Variant	Kd	screen value
chain 1 MLQMAGQCSQNEYFDGLLYACIPCQLRCSSNTPPLACQRYCNASVTNSVKGTNA [chain 1 S16G H19Y T36A]	0.018 nM	5860 A.U.
chain 1 MLQMAGQCSQNEYFDGLLYACIPCQLRCSSNTPPLACQRYCNASVTNSVKGTDA [chain 1 S16G H19Y T36A N53D]	0.008 nM	

— article PMC9428257
